Measured values reported in publication PMC11547827 (2024).
Bridges are numbered along the chain shown (N, C = ends). Where no end group is shown, it is not given here.

Target: T1, TNFR1 (Homo sapiens, UniProt P19438)
T1 chain: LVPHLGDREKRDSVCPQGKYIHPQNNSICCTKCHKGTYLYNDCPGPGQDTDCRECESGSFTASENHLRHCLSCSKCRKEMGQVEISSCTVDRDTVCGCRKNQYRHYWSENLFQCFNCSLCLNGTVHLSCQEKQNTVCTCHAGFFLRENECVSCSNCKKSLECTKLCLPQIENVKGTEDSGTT
Assay: ELISA

## YCWSQYLCY (disulfide 2-8 (inferred)) [WP9QY]
  Kd: 1150 nM

## CTISRIAVSYQTKVNRLSC (disulfide 1-19) [L16R (α_CC8 L16R cyclic peptide)]
  Kd: 177 nM
